Source: patent US20160347843A1 (UNIVERSITY OF MASSACHUSETTS, published 2016)

T1: GST-1C (glutathione S-transferase fused upstream of the sFlt1-1-specific C-terminal peptide) (human, not fully specified)
T1 construct: Bacterially expressed screening antigen coated on ELISA plates; not shown: N-terminal glutathione S-transferase (GST) fusion partner
T1 chain: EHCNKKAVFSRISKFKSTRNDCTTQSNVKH

T2: TRX-Exon14 (thioredoxin with 6-histidine tag fused upstream of the sFlt1-14-specific peptide) (human)
T2 construct: Bacterially expressed screening antigen coated on ELISA plates; not shown: N-terminal thioredoxin (TRX) with 6-histidine tag from pET32a(+)
T2 chain: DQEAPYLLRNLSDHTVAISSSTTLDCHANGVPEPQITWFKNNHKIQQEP

B1: mouse mAb EX14-1 (antibody, V domains shown)
VH: QIQLVQSGPELKKPGETVKISCTTSGYIFTTSGMSWVKQAPGKGLQWMGWINTYSGEPTYADDFKGRFAFSLETSASTAYLHINDLKNEDTATYFCARSRNNYEGFAYWGQGTLVTVSV
VL: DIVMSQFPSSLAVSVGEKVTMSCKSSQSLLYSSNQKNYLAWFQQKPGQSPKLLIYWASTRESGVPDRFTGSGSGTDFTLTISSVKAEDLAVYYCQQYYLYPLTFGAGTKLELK
notes: Murine hybridoma mAb with a kappa light chain (VK); also called sFlt1-14-specific mAb
B2: mouse mAb 1C-KLH-18 (antibody, V domains shown)
VH: EVQLQQSGAELVRPGASVKLSCTASGVNIKDDYMNWVNQRPEQGLEWIGWIDPENGDTEYASKFQGKATITADTSSNTAYLQLSSLTSEDTAVYYCAAGYDYFPFVYWGQGTLVAVSA
VL: DVLMSQTPLSLPVSLGDQASISCRSSQNIVHSNGNTYLEWYLQKPGQSPKLLIHKVSNRFSGVPDRFSGSGSGTDFTLKISRVEAEDLGVYYCFQGSHVPFTFGSGTKLEKK
notes: Murine hybridoma mAb with a kappa light chain (VK); It was used as hybridoma supernatant or Protein A purified mAb; also called sFlt1-specific mAb; sFlt1-1-specific mAb

Legend:
[1] = molecular target: T3, recombinant human sFlt1-1 with C-terminal 6-histidine tag, expressed in CHO cells (human, UniProt P17948 27-656); assay: capture ELISA (human anti-sFlt capture, mouse mAb detection)
T3 construct: also called sFlt1_v1; sFlt1-i13
Description: To measure the concentration of total sFlt and its isoforms, sFlt1-1 and sFlt1-14, in biological fluid, a capture ELISA was developed. Using an anti-sFlt human antibody to capture total sFlt and mouse antibodies 10 ugR#9, EX14-1 or 1C-KLH-18 to detect bound sFlt, allows the efficient capture of sFlt in biological fluid without high background or interference (FIG. 4). […] The sFlt1-specific mAb, 1C-KLH-18, detects recombinant human sFlt1-1, but not sFlt1-14 (FIG. 4A,B). Conversely, the sFlt1-14-specific mAb, EX14-1, detects recombinant human sFlt1-14, but not sFlt1-1 (FIG. 4A,B). In addition, each mAb detects a protein in human amniotic fluid (known from the literature to contain both sFlt isoforms; FIG. 4C) and no background is observed in normal human sera, which should contain very low levels of sFlt isoforms (FIG. 4D).
A capture ELISA format was utilized to quantify the total sFlt, sFlt1-1 or sFlt1-14 concentration in solution. Briefly, high-binding ELISA plates (Costar) were coated with 1 ug/ml of an anti-sFlt human antibody overnight at 4° C. This anti-sFlt antibody was selected to provide a capture reagent that bound both sFlt1-1 and sFlt1-14 at an epitope in their homologous regions without interfering with the availability of the epitopes bound by the antibodies of the present disclosure. […]

[2] = molecular target: T1, GST-1C (glutathione S-transferase fused …); assay: direct ELISA, plate coated with GST-1C, anti-mouse alkaline phosphatase and pNPP, OD405
Method: (§1) To determine reactivity of unique antibodies with sFlt1-1 and sFlt1-14, ELISA was employed. As described above, TRX-Exon14 and GST-1C peptides were expressed and purified from bacteria. ELISA plates were coated with either GST-1C (FIG. 2A) or TRX-Exon14 (FIG. 2B), blocked with BSA and a series of dilutions of each hybridoma supernatant containing mAb was incubated on the coated plates. Bound antibody was detected with anti-mouse alkaline phosphatase secondary antibody and the interaction developed with PNPP. Plates were read using a Molecular Devices Emax plate reader and antibodies with the desired specificity and highest affinity were selected for final ELISA production. These included mouse mAbs EX14-1 to detect sFlt1-14 and 1C-KLH-18 to detect sFlt1. […] A human anti sFLT antibody with properties described above (under Quantitative Capture ELISA) was also used to minimize background in the ELISAs.
(§2) To determine reactivity of unique antibodies with sFlt1-1. sFlt1-14, TRX-Exon14 (SEQ ID NO. 40) and GST-1C (SEQ ID NO. 38) isoforms, ELISA plates were coated with either GST-1C or TRX-Exon14, blocked with BSA and a series of dilutions of each hybridoma supernatant containing mAb (or purified mAb) was incubated on the coated plates. Bound antibody was detected with anti-mouse alkaline phosphatase secondary antibody (Jackson ImmunoResearch) and the interaction developed with pNPP. […]

[3] = molecular target: T2, TRX-Exon14 (thioredoxin with …); assay: ELISA of hybridoma cultures on coated TRX-Exon14
Method: as §1, §2

[4] = molecular target: T4, recombinant human sFlt1-14 with C-terminal 6-histidine tag, expressed in CHO cells (human, UniProt P17948 27-705); assay: Octet QK (BLI), mAb captured on anti-murine biosensor, recombinant sFlt in solution
T4 construct: also called sFlt1_v2; sFlt1-e15a
Method: (§3) Affinity of antibodies was determined using an Octet QK (ForteBio) biomolecular interaction instrument. The Octet QK performs similarly to Biacore in the measurement of antibody affinity. The Octet QK uses biosensors to assess mass increases/decreases and determine rates of association and disassociation. Anti-murine or anti-human biosensors (ForteBio) were used to capture mAb in PBS (5 ug/ml) to saturation and unbound mAb was washed away. The coated biosensors were introduced into a solution containing recombinant human sFlt1-1 or sFlt1-14 at which time Kₒₙ was determined. The sensor was then introduced into a buffer solution and the Koff determined. Using Kₒₙ and Koff an affinity (KD) was calculated.

[5] = molecular target: T1, GST-1C (glutathione S-transferase fused …); assay: ELISA of hybridoma cultures on coated GST-1C
Method: as §1, §2

[6] = molecular target: T3, recombinant human sFlt1-1 with …; assay: Octet QK (BLI), mAb captured on anti-murine biosensor, recombinant sFlt in solution
Method: as §3

[7] = molecular target: T4, recombinant human sFlt1-14 with …; assay: western blot, reducing SDS-PAGE, nitrocellulose, probed with 1C-KLH-18, HRP anti-mouse secondary
Method: Specificity of mAbs to sFIt1-14 and SFIt1-1 was investigated by western blot analysis on human amniotic fluid (FIG. 3). […] As standards, human recombinant sFlt1-1 or sFlt1-14 was loaded in final quantities of 200, 100 and 50 ng. After electrophoresis and transfer to nitrocellulose membranes, blots were blocked in 5% BSA and probed with EX14-1 (FIG. 3A), 1C-KLH-18 (FIG. 3B) or a commercially available mouse anti-VEGFR1 mAb (FIG. 3C) that recognized a single protein in amniotic fluid at the expected molecular weight (˜115 kDa) that corresponds to recombinant human sFlt1-14 and sFlt1-1, respectively. After washing, an HRP-labeled anti-mouse secondary antibody was used to detect bound mAb, developed and visualized using a Kodak Gel Logic imaging system. In addition, both mouse mAbs specifically recognized their recombinant sFlt1 isoform standards by western blot.

T3 sequence (P17948 other isoform, or with tags, fused parts or gaps): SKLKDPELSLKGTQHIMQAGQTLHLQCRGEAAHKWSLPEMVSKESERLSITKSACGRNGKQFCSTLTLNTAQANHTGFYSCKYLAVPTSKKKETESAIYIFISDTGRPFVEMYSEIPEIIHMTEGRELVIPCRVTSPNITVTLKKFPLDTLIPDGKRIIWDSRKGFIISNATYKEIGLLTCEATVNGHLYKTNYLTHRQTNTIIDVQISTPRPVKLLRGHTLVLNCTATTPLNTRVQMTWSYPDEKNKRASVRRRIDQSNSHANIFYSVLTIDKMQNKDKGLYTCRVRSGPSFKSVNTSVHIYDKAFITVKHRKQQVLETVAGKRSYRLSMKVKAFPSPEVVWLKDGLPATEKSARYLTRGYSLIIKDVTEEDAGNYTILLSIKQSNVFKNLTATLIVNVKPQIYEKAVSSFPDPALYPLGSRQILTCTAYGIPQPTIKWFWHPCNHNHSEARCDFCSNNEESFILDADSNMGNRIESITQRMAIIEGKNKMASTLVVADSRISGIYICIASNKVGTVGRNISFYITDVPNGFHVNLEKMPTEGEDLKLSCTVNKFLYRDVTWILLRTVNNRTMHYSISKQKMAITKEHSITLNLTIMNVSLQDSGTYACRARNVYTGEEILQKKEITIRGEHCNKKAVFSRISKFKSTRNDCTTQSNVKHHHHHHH
T4 sequence (P17948 other isoform, or with tags, fused parts or gaps): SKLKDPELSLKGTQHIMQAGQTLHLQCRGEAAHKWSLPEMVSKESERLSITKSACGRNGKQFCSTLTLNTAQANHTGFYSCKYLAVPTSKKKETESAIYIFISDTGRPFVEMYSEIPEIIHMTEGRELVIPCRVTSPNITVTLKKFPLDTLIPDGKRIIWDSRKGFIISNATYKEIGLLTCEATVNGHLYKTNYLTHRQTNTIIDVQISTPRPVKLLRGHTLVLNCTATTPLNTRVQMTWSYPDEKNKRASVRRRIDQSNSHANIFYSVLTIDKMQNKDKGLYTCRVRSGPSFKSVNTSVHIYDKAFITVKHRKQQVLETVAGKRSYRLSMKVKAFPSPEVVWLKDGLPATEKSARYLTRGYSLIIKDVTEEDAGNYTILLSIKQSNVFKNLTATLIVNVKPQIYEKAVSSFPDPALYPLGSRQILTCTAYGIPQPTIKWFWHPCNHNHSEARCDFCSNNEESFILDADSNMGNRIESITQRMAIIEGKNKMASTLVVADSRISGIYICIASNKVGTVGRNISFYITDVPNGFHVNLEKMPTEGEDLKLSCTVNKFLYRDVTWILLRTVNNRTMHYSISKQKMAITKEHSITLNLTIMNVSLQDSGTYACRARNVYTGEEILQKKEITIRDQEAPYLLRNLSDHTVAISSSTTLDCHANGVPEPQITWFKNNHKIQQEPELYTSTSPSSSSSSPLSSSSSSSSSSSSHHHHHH

Binder	binding result [1]	binding result [2]	binding result [3]	Kd [4] [nM]	binding result [5]	Kd [6] [nM]	binding result [7]
B1	no binding	no binding	binds	39.5			
B2					binds	4.3	no binding (tested: 200 ng per lane)
